Experimental data from PMC6753332.
pKd: −log10 of the molar value.

Biological target: neuropilin-1 (NRP1), wildtype, expressed on BW cells (human) (UniProt O14786)
Experiment: flow cytometry on cells; saturation: BW NRP1 cells with increasing concentrations of monomeric rh-C4Ad, detected with monoclonal C4d antibody and PE goat anti-mouse IgG; Langmuir isotherm for single-class 1:1 binding; apparent KD

## recombinant human C4Ad (rh-C4Ad) (domain or fragment)
  pKd: 6.15
